Data on two substances can be found in article PMC3867001.

This assay has as its target HIV-1 M group N-terminal capsid domain (HIV-1 M group) (UniProt P12493). Description: ITC. Background: In ITC the heat of successive injections is recorded.

The term Kd denotes a measure of binding affinity in units of concentration. A low value points to a tighter complex. Take “Cyclophilin A (unacetylated, recombinant) (from UniProt P62937 1-165) (enzyme)”: the Kd came out at 7.5 µM and the dH was -7.4 kcal/mol.

In the case of “Lys125-acetylated Cyclophilin A (recombinant) (from UniProt P62937 1-165) (enzyme)”, the Kd was 6.1 µM and the dH is -4.6 kcal/mol.
